Measured values as given in paper PMC5741831, “Structural determinants for protein unfolding and translocation by the Hsp104 protein disaggregase” (Bioscience Reports, 2017).

Target: the molecule itself
Assay: crystal structure; orthorhombic crystal form, 2.6 Å, nucleotide-free, three copies in the asymmetric unit; contacts between NCS-related neighbouring molecules in the crystal, not the hexameric ring

B1: Hsp104_(1-360) (domain or fragment, S. cerevisiae, UniProt P31539 1-360, looked up)
chain: MNDQTQFTERALTILTLAQKLASDHQHPQLQPIHILAAFIETPEDGSVPYLQNLIEKGRYDYDLFKKVVNRNLVRIPQQQPAPAEITPSYALGKVLQDAAKIQKQQKDSFIAQDHILFALFNDSSIQQIFKEAQVDIEAIKQQALELRGNTRIDSRGADTNTPLEYLSKYAIDMTEQARQGKLDPVIGREEEIRSTIRVLARRIKSNPCLIGEPGIGKTAIIEGVAQRIIDDDVPTILQGAKLFSLDLAALTAGAKYKGDFEERFKGVLKEIEESKTLIVLFIDEIHMLMGNGKDDAANILKPALSRGQLKVIGATTNNEYRSIVEKDGAFERRFQKIEVAEPSVRQTVAILRGLQPKYE
notes: Hsp104, S. cerevisiae, residues 1-360: N domain (4-164), AAA-1 large domain (165-341) and first helix of the AAA-1 small domain (345-356); three independent copies in the crystallographic asymmetric unit; nucleotide-free; also called N-terminal fragment of S. cerevisiae Hsp104; mol 1; source: E. coli BL21-CodonPlus (DE3)-RIL, purified (Ni-NTA, anion exchange, Mono-S); not shown: His6, N-terminal, …
binding result: binds
